Results published in patent US20250002593A1 (INMAGENE PTE, published 2025).

Assays:
[1] = molecular target: T1, Recombinant hIL-36R protein (Acrobio, Cat #IL2-H52H6) (human, UniProt Q9HB29 20-335); test: BLI (Gator)
T1 construct: Bought soluble protein; also called recombinant human IL-36R protein
T1 sequence: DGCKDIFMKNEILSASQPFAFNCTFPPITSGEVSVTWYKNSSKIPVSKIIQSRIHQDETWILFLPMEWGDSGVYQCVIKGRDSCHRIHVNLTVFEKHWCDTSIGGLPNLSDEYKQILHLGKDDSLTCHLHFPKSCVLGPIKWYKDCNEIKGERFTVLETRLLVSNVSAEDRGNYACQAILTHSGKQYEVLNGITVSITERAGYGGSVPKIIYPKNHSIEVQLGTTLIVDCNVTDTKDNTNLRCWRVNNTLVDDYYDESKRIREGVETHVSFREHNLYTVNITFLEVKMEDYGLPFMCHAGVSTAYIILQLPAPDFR

[2] = molecular target: T2, Recombinant hIL1R1 protein (human, UniProt P14778 18-332, limits assumed); test: ELISA on coated hIL1R1
T2 sequence (looked up): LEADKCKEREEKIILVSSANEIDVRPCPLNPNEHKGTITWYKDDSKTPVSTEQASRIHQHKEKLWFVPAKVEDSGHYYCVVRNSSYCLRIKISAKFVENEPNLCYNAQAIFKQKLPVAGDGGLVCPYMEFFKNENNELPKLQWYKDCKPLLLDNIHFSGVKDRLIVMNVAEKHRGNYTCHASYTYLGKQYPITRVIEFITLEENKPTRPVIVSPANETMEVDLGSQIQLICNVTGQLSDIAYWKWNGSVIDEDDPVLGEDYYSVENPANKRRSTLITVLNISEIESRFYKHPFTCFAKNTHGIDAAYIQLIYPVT

membrane hIL-36R [3] = molecular target: T3, membrane hIL-36R (human, UniProt Q9HB29 20-575); test: cell-based or functional assay
T3 sequence: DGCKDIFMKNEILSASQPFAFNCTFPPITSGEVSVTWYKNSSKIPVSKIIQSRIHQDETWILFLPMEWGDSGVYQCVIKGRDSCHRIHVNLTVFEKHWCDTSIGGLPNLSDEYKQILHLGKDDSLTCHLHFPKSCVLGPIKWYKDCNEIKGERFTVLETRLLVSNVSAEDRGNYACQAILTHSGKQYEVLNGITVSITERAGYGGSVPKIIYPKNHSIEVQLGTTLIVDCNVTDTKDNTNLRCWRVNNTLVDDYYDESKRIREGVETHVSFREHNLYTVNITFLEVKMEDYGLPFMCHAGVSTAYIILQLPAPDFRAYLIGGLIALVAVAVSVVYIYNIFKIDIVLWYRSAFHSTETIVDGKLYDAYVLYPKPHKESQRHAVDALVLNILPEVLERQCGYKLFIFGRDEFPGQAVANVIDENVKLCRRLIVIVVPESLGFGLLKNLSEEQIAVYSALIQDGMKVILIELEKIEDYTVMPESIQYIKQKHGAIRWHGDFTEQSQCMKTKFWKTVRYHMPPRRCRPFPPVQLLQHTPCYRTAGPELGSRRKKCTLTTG

membrane hIL-36R [4] = molecular target: T3, membrane hIL-36R; test: cell-based or functional assay; remark: listed apart in the source
recombinant hIL-36R-his = molecular target: T4, recombinant hIL-36R-his (human, UniProt Q9HB29 20-337); test: ELISA on coated recombinant hIL-36R-his, HRP anti-hIgG
T4 construct: Residues 1-337 (extracellular domain) are stated for the IL-36R-his used as immunogen; The range includes the signal peptide; no cleavage site is stated; also called recombinant hIL36R protein; recombinant human IL-36R-his protein; not shown: His tag
T4 sequence: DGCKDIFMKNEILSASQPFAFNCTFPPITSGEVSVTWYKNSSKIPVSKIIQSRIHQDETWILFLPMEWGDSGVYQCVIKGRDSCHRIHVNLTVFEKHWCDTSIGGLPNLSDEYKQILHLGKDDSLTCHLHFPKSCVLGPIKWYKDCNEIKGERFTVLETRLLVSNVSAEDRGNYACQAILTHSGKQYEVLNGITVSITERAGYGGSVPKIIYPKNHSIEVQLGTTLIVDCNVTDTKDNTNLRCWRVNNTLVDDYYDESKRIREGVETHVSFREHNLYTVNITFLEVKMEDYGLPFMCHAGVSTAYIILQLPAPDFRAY

membrane mouse IL-36R = molecular target: T5, membrane mouse IL-36R (mouse, UniProt Q9ERS7 22-574); test: flow cytometry on HEK293 cells transfected with mouse IL-36R
T5 construct: whole, on cells; also called mouse IL-36R on HEK293 cells transfected with pcDNA3.1-musIL36R
T5 sequence (looked up): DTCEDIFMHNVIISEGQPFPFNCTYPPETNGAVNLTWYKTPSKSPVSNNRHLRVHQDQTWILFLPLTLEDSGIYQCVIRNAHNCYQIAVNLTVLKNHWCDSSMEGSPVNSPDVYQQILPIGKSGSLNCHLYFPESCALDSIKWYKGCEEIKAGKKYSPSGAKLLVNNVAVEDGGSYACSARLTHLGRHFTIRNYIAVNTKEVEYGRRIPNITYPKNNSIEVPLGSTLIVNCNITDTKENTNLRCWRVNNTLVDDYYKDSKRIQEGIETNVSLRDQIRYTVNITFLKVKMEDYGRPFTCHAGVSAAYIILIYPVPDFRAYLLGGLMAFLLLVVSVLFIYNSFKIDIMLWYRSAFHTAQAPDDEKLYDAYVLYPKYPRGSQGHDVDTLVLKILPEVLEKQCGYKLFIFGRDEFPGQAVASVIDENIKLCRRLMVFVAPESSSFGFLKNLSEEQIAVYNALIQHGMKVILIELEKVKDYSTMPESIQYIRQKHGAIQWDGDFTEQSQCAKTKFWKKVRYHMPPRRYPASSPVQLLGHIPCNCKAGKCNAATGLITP

[5] = molecular target: T1, Recombinant hIL-36R protein (Acrobio, …); test: SPR (Biacore T200, 25 C), antibody captured by Fc, hIL-36R analyte
membrane hIL-36R [6] = molecular target: T3, membrane hIL-36R; test: flow cytometry on HEK293 cells transfected with hIL-36R, FITC anti-hIgG
[7] = molecular target: T6, recombinant hFcRn-his/B2M heterodimer protein (Acrobio, Cat #FCM-H82W4) (human, UniProt P55899 24-297; P61769 21-119); test: BLI (Gator) at pH 6.0, hFcRn-his/B2M on anti-his sensor, antibody analyte
T6 construct: Bought heterodimer
T6 sequence (P55899 24-297 limits assumed, chain 1 of 2): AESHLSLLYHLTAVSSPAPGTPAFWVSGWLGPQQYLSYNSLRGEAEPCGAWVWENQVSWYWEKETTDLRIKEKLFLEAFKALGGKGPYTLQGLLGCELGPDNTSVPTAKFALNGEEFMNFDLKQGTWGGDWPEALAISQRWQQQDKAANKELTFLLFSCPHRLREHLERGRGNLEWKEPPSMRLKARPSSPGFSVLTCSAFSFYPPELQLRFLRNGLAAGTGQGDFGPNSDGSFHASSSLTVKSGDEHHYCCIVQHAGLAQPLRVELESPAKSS
T6 sequence (P61769 21-119 limits assumed, chain 2 of 2): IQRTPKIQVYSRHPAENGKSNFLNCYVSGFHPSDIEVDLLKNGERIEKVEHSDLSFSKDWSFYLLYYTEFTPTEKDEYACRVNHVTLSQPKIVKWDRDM

B1: 5F7-2a8 (antibody, human IgG4 S228P, kappa)
heavy: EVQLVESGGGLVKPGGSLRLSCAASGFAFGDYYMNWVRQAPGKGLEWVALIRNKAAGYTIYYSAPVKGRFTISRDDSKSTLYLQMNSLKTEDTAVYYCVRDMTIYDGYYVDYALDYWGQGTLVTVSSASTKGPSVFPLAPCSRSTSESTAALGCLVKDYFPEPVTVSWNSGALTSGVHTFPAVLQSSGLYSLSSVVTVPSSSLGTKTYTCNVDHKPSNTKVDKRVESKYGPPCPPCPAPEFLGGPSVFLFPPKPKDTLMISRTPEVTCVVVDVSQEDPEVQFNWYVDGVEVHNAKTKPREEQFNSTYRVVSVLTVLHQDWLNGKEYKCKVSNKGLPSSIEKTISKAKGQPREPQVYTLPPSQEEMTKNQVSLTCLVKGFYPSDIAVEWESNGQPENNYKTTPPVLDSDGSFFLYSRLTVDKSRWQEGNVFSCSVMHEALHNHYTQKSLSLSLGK
light: DIVMTQSPSSVSASVGDRVTITCRASRNINIWLSWYQQKPGKAPKLFIYKASNLHTGVPSRFSGSGSGTDFTLTISSLQPEDFATYYCLQSQSYPLTFGQGTKLEIKRTVAAPSVFIFPPSDEQLKSGTASVVCLLNNFYPREAKVQWKVDNALQSGNSQESVTEQDSKDSTYSLSSTLTLSKADYEKHKVYACEVTHQGLSSPVTKSFNRGEC
notes: also called 5F7-2a8-WT; 5F7-WT
What does the source list for B1?
Kd [1]: < 0.1 nM; kon [1]: 47100 M⁻¹ s⁻¹; binding result [2]: no binding; IC50, IL-36α induced IL-6 release in HEK cells (membrane hIL-36R [3]): 0.11 µg/mL; IC50, IL-36α induced IL-8 release in A431 cells (membrane hIL-36R [3]): 0.195 µg/mL; IC50, IL-36α induced IL-8 release in HDF cells (membrane hIL-36R [3]): 0.00696 µg/mL; IC50, IL-36α induced IL-8 release in HEK cells (membrane hIL-36R [3]): 0.129 µg/mL; IC50, IL-36α induced TNF-a release in HEK cells (membrane hIL-36R [3]): 0.0535 µg/mL; IC50, IL-36β induced IL-6 release in HEK cells (membrane hIL-36R [3]): 0.0188 µg/mL; IC50, IL-36β induced IL-8 release in A431 cells (membrane hIL-36R [3]): 0.111 µg/mL; IC50, IL-36β induced IL-8 release in HEK cells (membrane hIL-36R [3]): 0.0481 µg/mL; IC50, IL-36β induced TNF-a release in HEK cells (membrane hIL-36R [3]): 0.0235 µg/mL; IC50, IL-36γ induced IL-6 release in HEK cells (membrane hIL-36R [3]): 0.0446 µg/mL; IC50, IL-36γ induced IL-8 release in A431 cells (membrane hIL-36R [3]): 0.00877 µg/mL; IC50, IL-36γ induced IL-8 release in HEK cells (membrane hIL-36R [3]): 0.0326 µg/mL; IC50, IL-36γ induced TNF-a release in HEK cells (membrane hIL-36R [3]): 0.00526 µg/mL; IC50, IL-36R reporter assay: inhibition of ligand induced luminescence in Jurkat-IL36R-IL1Racp-NFkB-luc cells (membrane hIL-36R [4]): 0.0237 µg/mL; EC50 (recombinant hIL-36R-his): 0.00947 µg/mL; binding result (membrane mouse IL-36R): no binding; Kd [5]: 1.52 nM; koff [5]: 4.48e-05 s⁻¹; kon [5]: 29500 M⁻¹ s⁻¹; EC50 (membrane hIL-36R [6]): 0.146 µg/mL; Kd [7]: 168 nM; koff [7]: 0.0507 s⁻¹; kon [7]: 301000 M⁻¹ s⁻¹
